PMC13649778, “Unraveling single-molecule reactions via multiplexed in-situ DNA sequencing”
Numbering of substitutions follows the chain as printed.

B1: CAPcons (consensus, pure; CAPcons_C, top 5G) (dsDNA)
DNA 1: GGCAGTGAGCTCTACGCAATAAATGTGATCTAGATCACATTTTAGGCAC
DNA 2: GTGCCTAAAATGTGATCTAGATCACATTTATTGCGTAGAGCTCACTGCC
B2: CAPcons position 5 C:G variant (pure; CAPcons_G) (dsDNA)
DNA 1: B1 DNA 1 with G25C
DNA 2: B1 DNA 2 with C25G
B3: CAPcons library member CAPcons_C (consensus, top 5G) (dsDNA)
DNA 1: B1 DNA 1
DNA 2: B1 DNA 2
B4: CAPcons library member CAPcons_G (top 5C) (dsDNA)
DNA 1: B1 DNA 1 with G25C
DNA 2: B1 DNA 2 with C25G
B5: CAPcons library member CAPcons_A (top 5T; table letter taken as bottom-strand base) (dsDNA)
DNA 1: B1 DNA 1 with G25T
DNA 2: B1 DNA 2 with C25A
B6: CAPcons library member CAPcons_T (top 5A; table letter taken as bottom-strand base) (dsDNA)
DNA 1: B1 DNA 1 with G25A
DNA 2: B1 DNA 2 with C25T

These binders were tested against T1, Alexa647-CAP (CAP-(Cys17;Ser178), catabolite activator protein) (Escherichia coli, UniProt P0ACJ8 1-210, H18C;C179S) (assay: single-molecule fluorescence (koff/kon); 0.2 mM cAMP, 10 mM Mg2+; 40 mM Tris pH 8, 100 mM KCl, 10 mM MgCl2, 5% glycerol, 0.2 mM cAMP, 1 mM TROLOX, glucose oxidase/catalase; 1.25 nM (pure) or 2.5 nM (library) Alexa647-CAP; temperature not stated). Conditions: protein: recombinant; tags: His6; Alexa647 maleimide (40% labelled); chain copies: 2; label: Cy3B at top position 13; 5' biotin on bottom strand; blunt.

Compared with B1, B2 is 2.2-fold higher in Kd: 9.1 ± 0.6 nM for the first, 20.2 ± 1.3 nM for the second. The first binds more tightly here.

The binders below were run against T1, Alexa647-CAP (CAP-(Cys17;Ser178), …) (assay: single-molecule fluorescence (SPIN-Seq library); 0.2 mM cAMP, 10 mM Mg2+; 40 mM Tris pH 8, 100 mM KCl, 10 mM MgCl2, 5% glycerol, 0.2 mM cAMP, 1 mM TROLOX, glucose oxidase/catalase; 1.25 nM (pure) or 2.5 nM (library) Alexa647-CAP; temperature not stated). Conditions: protein: recombinant; tags: His6; Alexa647 maleimide (40% labelled); chain copies: 2; label: Cy3B at top position 11; 5' biotin on bottom strand; blunt.

Going from B3 to B4, the Kd rises from 10.6 ± 0.6 nM to 20.1 ± 0.9 nM (1.9-fold). The first binds more tightly here.

B5 and B6 are within 1.5-fold of each other in Kd: 29.1 ± 1.6 nM for the first, 24.4 ± 0.8 nM for the second.
